Laboratory results taken from the supplement of paper PMC5998384.

Columns and labels:
[1] = system: HeLa Kyoto; assay: melting temperature (median over replicates), in situ; higher = more thermally stable
[2] = system: HeLa Kyoto; assay: thermal stability score vs G1/S (z-score of summed log2 fold changes over temperatures); higher = more thermally stable than in G1/S
[3] = system: HeLa Kyoto; assay: solubility in G1/S (NP-40 vs SDS abundance) (log2 ratio); higher = more soluble; conditions: cell cycle stage: G1/S
[4] = system: HeLa Kyoto; assay: solubility change mitosis vs G1/S (difference of NP-40 vs SDS log2 ratios) (log2 ratio difference); higher = more soluble in mitosis
[5] = cell cycle stage: early G1 (4.5 h after nocodazole release)
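Wherever melting temperature (median over replicates), in situ is given: HeLa Kyoto cells synchronized by double thymidine or nocodazole block, proteins quantified by TMT10plex mass spectrometry, three independent biological replicates.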
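Wherever solubility change mitosis vs G1/S (difference of NP-40 vs SDS log2 ratios) is given: synchronized HeLa Kyoto cells (double thymidine block for G1/S, nocodazole release for mitosis), protein amounts in NP-40 versus SDS lysates quantified by mass spectrometry, three biological replicates.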
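Wherever solubility in G1/S (NP-40 vs SDS abundance) is given: HeLa Kyoto cells arrested at G1/S by double thymidine block, proteins quantified by TMT10plex mass spectrometry in mild NP-40 versus SDS extracts, three biological replicates.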
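Wherever thermal stability score vs G1/S (z-score of summed log2 fold changes over temperatures) is given: synchronized HeLa Kyoto cells, proteins quantified by TMT10plex mass spectrometry, three biological replicates, mitosis taken 0.5 h after nocodazole release, G1/S directly after double thymidine block.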

Row | Sequence | melting temperature ([1]; cell cycle stage: G1/S) [°C] | melting temperature ([1]; cell cycle stage: mitosis) [°C] | thermal stability score [2, 5] | thermal stability score ([2]; cell cycle stage: mitosis) | solubility in G1/S (log2) [3] | solubility change mitosis (log2) [4]
1 | MAKRKEENFSSPKNAKRPRQEELEDFDKDGDEDECKGTTLTAAEVGIIESIHLKNFMCHSMLGPFKFGSNVNFVVGNNGSGKSAVLTALIVGLGGRAVATNRGSSLKGFVKDGQNSADISITLRNRGDDAFKASVYGNSILIQQHISIDGSRSYKLKSATGSVVSTRKEELIAILDHFNIQVDNPVSVLTQEMSKQFLQSKNEGDKYKFFMKATQLEQMKEDYSYIMETKERTKEQIHQGEERLTELKRQCVEKEERFQSIAGLSTMKTNLESLKHEMAWAVVNEIEKQLNAIRDNIKIGEDRAARLDRKMEEQQVRLNEAEQKYKDIQDKLEKISEETNARAPECMALKADVVAKKRAYNEAEVLYNRSLNEYKALKKDDEQLCKRIEELKKSTDQSLEPERLERQKKISWLKERVKAFQNQENSVNQEIEQFQQAIEKDKEEHGKIKREELDVKHALSYNQRQLKELKDSKTDRLKRFGPNVPALLEAIDDAYRQGHFTYKPVGPLGACIHLRDPELALAIESCLKGLLQAYCCHNHADERVLQALMKRFYLPGTSRPPIIVSEFRNEIYDVRHRAAYHPDFPTVLTALEIDNAVVANSLIDMRGIETVLLIKNNSVARAVMQSQKPPKNCREAFTADGDQVFAGRYYSSENTRPKFLSRDVDSEISDLENEVENKTAQILNLQQHLSALEKDIKHNEELLKRCQLHYKELKMKIRKNISEIRELENIEEHQSVDIATLEDEAQENKSKMKMVEEHMEQQKENMEHLKSLKIEAENKYDAIKFKINQLSELADPLKDELNLADSEVDNQKRGKRHYEEKQKEHLDTLNKKKRELDMKEKELEEKMSQARQICPERIEVEKSASILDKEINRLRQKIQAEHASHGDREEIMRQYQEARETYLDLDSKVRTLKKFIKLLGEIMEHRFKTYQQFRRCLTLRCKLYFDNLLSQRAYCGKMNFDHKNETLSISVQPGEGNKAAFNDMRALSGGERSFSTVCFILSLWSIAESPFRCLDEFDVYMDMVNRRIAMDLILKMADSQRFRQFILLTPQSMSSLPSSKLIRILRMSDPERGQTTLPFRPVTQEEDDDQR [SMC6] | 50.6 | 50.4 | 0.465 | -0.0501 | -0.133 | 0.0261
2 | MALDVKSRAKRYEKLDFLGEGQFATVYKARDKNTNQIVAIKKIKLGHRSEAKDGINRTALREIKLLQELSHPNIIGLLDAFGHKSNISLVFDFMETDLEVIIKDNSLVLTPSHIKAYMLMTLQGLEYLHQHWILHRDLKPNNLLLDENGVLKLADFGLAKSFGSPNRAYTHQVVTRWYRAPELLFGARMYGVGVDMWAVGCILAELLLRVPFLPGDSDLDQLTRIFETLGTPTEEQWPDMCSLPDYVTFKSFPGIPLHHIFSAAGDDLLDLIQGLFLFNPCARITATQALKMKYFSNRPGPTPGCQLPRPNCPVETLKEQSNPALAIKRKRTEALEQGGLPKKLIF [CDK7] | 51 | 51 | 0.106 | 1.13 | 0.167 | -0.142
3 | MALGLKCFRMVHPTFRNYLAASIRPVSEVTLKTVHERQHGHRQYMAYSAVPVRHFATKKAKAKGKGQSQTRVNINAALVEDIINLEEVNEEMKSVIEALKDNFNKTLNIRTSPGSLDKIAVVTADGKLALNQISQISMKSPQLILVNMASFPECTAAAIKAIRESGMNLNPEVEGTLIRVPIPQVTREHREMLVKLAKQNTNKAKDSLRKVRTNSMNKLKKSKDTVSEDTIRLIEKQISQMADDTVAELDRHLAVKTKELLG [MRRF] | 50.1 | 51.3 | -2.43 | -2.36 | 0.605 | 0.328
4 | MALKQISSNKCFGGLQKVFEHDSVELNCKMKFAVYLPPKAETGKCPALYWLSGLTCTEQNFISKSGYHQSASEHGLVVIAPDTSPRGCNIKGEDESWDFGTGAGFYVDATEDPWKTNYRMYSYVTEELPQLINANFPVDPQRMSIFGHSMGGHGALICALKNPGKYKSVSAFAPICNPVLCPWGKKAFSGYLGTDQSKWKAYDATHLVKSYPGSQLDILIDQGKDDQFLLDGQLLPDNFIAACTEKKIPVVFRLQEGYDHSYYFIATFITDHIRHHAKYLNA [ESD] | 55.8 | 56.4 | -1.51 | -2.28 | -0.0889 | -0.0867
5 | MALLALLLVVALPRVWTDANLTARQRDPEDSQRTDEGDNRVWCHVCERENTFECQNPRRCKWTEPYCVIAAVKIFPRFFMVAKQCSAGCAAMERPKPEEKRFLLEEPMPFFYLKCCKIRYCNLEGPPINSSVFKEYAGSMGESCGGLWLAILLLLASIAAGLSLS [LY6K] | 52.6 | 52.9 | 2.6 | 2.04 | 0.0392 | -0.107
6 | MALLAMHSWRWAAAAAAFEKRRHSAILIRPLVSVSGSGPQWRPHQLGALGTARAYQIPESLKSITWQRLGKGNSGQFLDAAKALQVWPLIEKRTCWHGHAGGGLHTDPKEGLKDVDTRKIIKAMLSYVWPKDRPDLRARVAISLGFLGGAKAMNIVVPFMFKYAVDSLNQMSGNMLNLSDAPNTVATMATAVLIGYGVSRAGAAFFNEVRNAVFGKVAQNSIRRIAKNVFLHLHNLDLGFHLSRQTGALSKAIDRGTRGISFVLSALVFNLLPIMFEVMLVSGVLYYKCGAQFALVTLGTLGTYTAFTVAVTRWRTRFRIEMNKADNDAGNAAIDSLLNYETVKYFNNERYEAQRYDGFLKTYETASLKSTSTLAMLNFGQSAIFSVGLTAIMVLASQGIVAGTLTVGDLVMVNGLLFQLSLPLNFLGTVYRETRQALIDMNTLFTLLKVDTQIKDKVMASPLQITPQTATVAFDNVHFEYIEGQKVLSGISFEVPAGKKVAIVGGSGSGKSTIVRLLFRFYEPQKGSIYLAGQNIQDVSLESLRRAVGVVPQDAVLFHNTIYYNLLYGNISASPEEVYAVAKLAGLHDAILRMPHGYDTQVGERGLKLSGGEKQRVAIARAILKDPPVILYDEATSSLDSITEETILGAMKDVVKHRTSIFIAHRLSTVVDADEIIVLDQGKVAERGTHHGLLANPHSIYSEMWHTQSSRVQNHDNPKWEAKKENISKEEERKKLQEEIVNSVKGCGNCSC [ABCB7] | 52.5 | 51.6 | -0.909 | -1.83 | -0.121 | -0.12
7 | MALLLCFVLLCGVVDFARSLSITTPEEMIEKAKGETAYLPCKFTLSPEDQGPLDIEWLISPADNQKVDQVIILYSGDKIYDDYYPDLKGRVHFTSNDLKSGDASINVTNLQLSDIGTYQCKVKKAPGVANKKIHLVVLVKPSGARCYVDGSEEIGSDFKIKCEPKEGSLPLQYEWQKLSDSQKMPTSWLAEMTSSVISVKNASSEYSGTYSCTVRNRVGSDQCLLRLNVVPPSNKAGLIAGAIIGTLLALALIGLIIFCCRKKRREEKYEKEVHHDIREDVPPPKSRTSTARSYIGSNHSSLGSMSPSNMEGYSKTQYNQVPSEDFERTPQSPTLPPAKVAAPNLSRMGAIPVMIPAQSKDGSIV [CXADR] | 59.4 | 57.6 | -1.74 | -2.2 | 0.245 | -0.112
8 | MALLRGVFVVAAKRTPFGAYGGLLKDFTATDLSEFAAKAALSAGKVSPETVDSVIMGNVLQSSSDAIYLARHVGLRVGIPKETPALTINRLCGSGFQSIVNGCQEICVKEAEVVLCGGTESMSQAPYCVRNVRFGTKLGSDIKLEDSLWVSLTDQHVQLPMAMTAENLAVKHKISREECDKYALQSQQRWKAANDAGYFNDEMAPIEVKTKKGKQTMQVDEHARPQTTLEQLQKLPPVFKKDGTVTAGNASGVADGAGAVIIASEDAVKKHNFTPLARIVGYFVSGCDPSIMGIGPVPAISGALKKAGLSLKDMDLVEVNEAFAPQYLAVERSLDLDISKTNVNGGAIALGHPLGGSGSRITAHLVHELRRRGGKYAVGSACIGGGQGIAVIIQSTA [ACAA2] | 59.3 | 59.2 | -3.39 | -4.11 | 0.213 | -0.0842
9 | MALLSTVRGATWGRLVTRHFSHAARHGERPGGEELSRLLLDDLVPTSRLELLFGMTPCLLALQAARRSVARLLLQAGKAGLQGKRAELLRMAEARDIPVLRPRRQKLDTMCRYQVHQGVCMEVSPLRPRPWREAGEASPGDDPQQLWLVLDGIQDPRNFGAVLRSAHFLGVDKVITSRRNSCPLTPVVSKSSAGAMEVMDVFSTDDLTGFLQTKAQQGWLVAGTVGCPSTEDPQSSEIPIMSCLEFLWERPTLLVLGNEGSGLSQEVQASCQLLLTILPRRQLPPGLESLNVSVAAGILLHSICSQRKGFPTEGERRQLLQDPQEPSARSEGLSMAQHPGLSSGPEKERQNEG [MRM1] | 53.3 | 51.7 | -1.62 | -1.81 | -0.178 | 0.0939
10 | MALLVRVLRNQTSISQWVPVCSRLIPVSPTQGQGDRALSRTSQWPQMSQSRACGGSEQIPGIDIQLNRKYHTTRKLSTTKDSPQPVEEKVGAFTKIIEAMGFTGPLKYSKWKIKIAALRMYTSCVEKTDFEEFFLRCQMPDTFNSWFLITLLHVWMCLVRMKQEGRSGKYMCRIIVHFMWEDVQQRGRVMGVNPYILKKNMILMTNHFYAAILGYDEGILSDDHGLAAALWRTFFNRKCEDPRHLELLVEYVRKQIQYLDSMNGEDLLLTGEVSWRPLVEKNPQSILKPHSPTYNDEGL [UQCC1] | 54.2 | 54.1 | 0.338 | -0.909 | -0.367 | -0.25
11 | MALPFRKDLEKYKDLDEDELLGNLSETELKQLETVLDDLDPENALLPAGFRQKNQTSKSTTGPFDREHLLSYLEKEALEHKDREDYVPYTGEKKGKIFIPKQKPVQTFTEEKVSLDPELEEALTSASDTELCDLAAILGMHNLITNTKFCNIMGSSNGVDQEHFSNVVKGEKILPVFDEPPNPTNVEESLKRTKENDAHLVEVNLNNIKNIPIPTLKDFAKALETNTHVKCFSLAATRSNDPVATAFAEMLKVNKTLKSLNVESNFITGVGILALIDALRDNETLAELKIDNQRQQLGTAVELEMAKMLEENTNILKFGYQFTQQGPRTRAANAITKNNDLVRKRRVEGDHQ [TMOD3] | 49.4 | 50.5 | -0.553 | 0.573 | 0.293 | 0.296
12 | MALQLGRLSSGPCWLVARGGCGGPRAWSQCGGGGLRAWSQRSAAGRVCRPPGPAGTEQSRGLGHGSTSRGGPWVGTGLAAALAGLVGLATAAFGHVQRAEMLPKTSGTRATSLGRPEEEEDELAHRCSSFMAPPVTDLGELRRRPGDMKTKMELLILETQAQVCQALAQVDGGANFSVDRWERKEGGGGISCVLQDGCVFEKAGVSISVVHGNLSEEAAKQMRSRGKVLKTKDGKLPFCAMGVSSVIHPKNPHAPTIHFNYRYFEVEEADGNKQWWFGGGCDLTPTYLNQEDAVHFHRTLKEACDQHGPDLYPKFKKWCDDYFFIAHRGERRGIGGIFFDDLDSPSKEEVFRFVQSCARAVVPSYIPLVKKHCDDSFTPQEKLWQQLRRGRYVEFNLLYDRGTKFGLFTPGSRIESILMSLPLTARWEYMHSPSENSKEAEILEVLRHPRDWVR [CPOX] | 55 | 55 | -0.749 | -1.47 | 0.131 | -0.135
13 | MALRVVRSVRALLCTLRAVPSPAAPCPPRPWQLGVGAVRTLRTGPALLSVRKFTEKHEWVTTENGIGTVGISNFAQEALGDVVYCSLPEVGTKLNKQDEFGALESVKAASELYSPLSGEVTEINEALAENPGLVNKSCYEDGWLIKMTLSNPSELDELMSEEAYEKYIKSIEE [GCSH] | 60 | 56.8 | -1.2 | -1.7 | 0.297 | -0.0756
